According to article PMC5837747:

Molecular target: HA-14-3-3β (UniProt P31946)
Test: GFP co-immunoprecipitation, HA blot, densitometry

Substance | binding against the reference (reference: wild type (unstimulated and PMA-treated cells), sites S1093,S1163) | binding against the reference (reference: S1093A single mutant, sites S1163) | binding against the reference (reference: S1163A single mutant, sites S1093)
mouse CdGAP (mCdGAP, GFP-CdGAP) (from UniProt A6X8Z5) S1093A/S1163A | weaker |  | 
mouse CdGAP (mCdGAP, GFP-CdGAP) (from UniProt A6X8Z5) S1093A/S1163A double mutant |  | weaker | weaker
